Laboratory results: article PMC13223232, “Structural basis for TRF2-RAP1 recruitment by EBNA1 at the EBV origin of replication” (Scientific Reports, 2025)

B1: GST-TRFH domain (amino acids 85–287) (domain or fragment, human, UniProt Q15554 85-287, looked up)
chain: AGEARLEEAVNRWVLKFYFHEALRAFRGSRYGDFRQIRDIMQALLVRPLGKEHTVSRLLRVMQCLSRIEEGENLDCSFDMEAELTPLESAINVLEMIKTEFTLTEAVVESSRKLVKEAAVIICIKNKEFEKASKILKKHMSKDPTTQKLRNDLLNIIREKNLAHPVIQNFSYETFQQKMLRFLESHLDDAEPYLLTMAKKALK
notes: also called TRF2 homodimerization domain; TRF2 dimerization domain; source: E. coli, purified to near homogeneity; not shown: GST, N-terminal, kept
B3: EBNA1 DNA binding domain (DBD) aa 401–607 (domain or fragment)
chain: GRRPFFHPVGEADYFEYHQEGGPDGEPDVPPGAIEQGPADDPGEGPSTGPRGQGDGGRRKKGGWFGKHRGQGGSNPKFENIAEGLRALLARSHVERTTDEGTWVAGVFVYGGSKTSLYNLRRGTALAIPQCRLTPLSRLPFGMAPGPGPQPGPLRESIVCYFMVFLQTHIFAEVLKDAIKDLVMTKPAPTCNIRVTVCSFDDGVDLP
notes: also called EBNA1 DBD; EBNA1 401–607; source: E. coli, purified (Ni-NTA, SEC); not shown: His6-SUMO, N-terminal, cleaved
B4: full length TRF2/Rap1 complex (complex)
chain 1: MAAGAGTAGPASGPGVVRDPAASQPRKRPGREGGEGARRSDTMAGGGGSSDGSGRAAGRRASRSSGRARRGRHEPGLGGPAERGAGEARLEEAVNRWVLKFYFHEALRAFRGSRYGDFRQIRDIMQALLVRPLGKEHTVSRLLRVMQCLSRIEEGENLDCSFDMEAELTPLESAINVLEMIKTEFTLTEAVVESSRKLVKEAAVIICIKNKEFEKASKILKKHMSKDPTTQKLRNDLLNIIREKNLAHPVIQNFSYETFQQKMLRFLESHLDDAEPYLLTMAKKALKSESAASSTGKEDKQPAPGPVEKPPREPARQLRNPPTTIGMMTLKAAFKTLSGAQDSEAAFAKLDQKDLVLPTQALPASPALKNKRPRKDENESSAPADGEGGSELQPKNKRMTISRLVLEEDSQSTEPSAGLNSSQEAASAPPSKPTVLNQPLPGEKNPKVPKGKWNSSNGVEEKETWVEEDELFQVQAAPDEDSTTNITKKQKWTVEESEWVKAGVQKYGEGNWAAISKNYPFVNRTAVMIKDRWRTMKRLGMN
chain 2: MAEAMDLGKDPNGPTHSSTLFVRDDGSSMSFYVRPSPAKRRLSTLILHGGGTVCRVQEPGAVLLAQPGEALAEASGDFISTQYILDCVERNERLELEAYRLGPASAADTGSEAKPGALAEGAAEPEPQRHAGRIAFTDADDVAILTYVKENARSPSSVTGNALWKAMEKSSLTQHSWQSLKDRYLKHLRGQEHKYLLGDAPVSPSSQKLKRKAEEDPEAADSGEPQNKRTPDLPEEEYVKEEIQENEEAVKKMLVEATREFEEVVVDESPPDFEIHITMCDDDPPTPEEDSETQPDEEEEEEEEKVSQPEVGAAIKIIRQLMEKFNLDLSTVTQAFLKNSGELEATSAFLASGQRADGYPIWSRQDDIDLQKDDEDTREALVKKFGAQNVARRIEFRKK
notes: also called pre-assembled TRF2-Rap1 complex; source: E. coli, each purified (Ni-NTA, SEC); pre-assembled complex purified by glycerol gradient; not shown: His6-SUMO, N-terminal, cleaved

Tests used:
[1] = target: B3; test: native gel or EMSA; supershift of the ½ DS-EBNA1 complex by TRFH (no Myb domain); binding buffer lowered to 100 mM KCl, highest TRFH 10 µM (1000-fold stoichiometric excess); only a weak supershift under standard conditions (300 mM KCl); details: both partners purified
[2] = target: B1; test: as above; details: both partners purified
[3] = target: the molecule itself; test: cryo-EM structure; ½ DS + EBNA1 DBD + TRF2 + Rap1 (1 : 4 : 2.5 : 2.5), GraFix (10-30% glycerol, 0.125% glutaraldehyde); estimated 7.1 Å reconstruction
[4] = target: B4; test: native gel or EMSA; IRD700-labelled 60 bp ½ DS DNA probe (5 nM); Rap1, TRF2 or TRF2 + Rap1 titrated up to 480 nM without EBNA1, with EBNA1 401–607 or with EBNA1 Δ90–325; 10 mM HEPES pH 7.5, 300 mM KCl, 5 mM MgCl2, 1 mM ZnCl2, 5 mM BME, 0.05% NP-40, 5% glycerol; 1.4% agarose gel; all proteins meet on the DNA; details: both partners purified
full-length TRF2 = target: T1, full-length TRF2 (human, UniProt Q15554 1-542); test: cross-linking; zero-length EDC/Sulfo-NHS cross-linking with LC-MS/MS; complex mixed 1 ½ DS DNA : 4 EBNA1 401–607 : 2.5 TRF2 : 2.5 Rap1, glycerol-gradient purified, 1 mg/mL in 20 mM MES pH 6.8, 100 mM NaCl, 1 mM MgCl2, 10 µM ZnCl2, 0.5 mM TCEP; 10 mM crosslinker, room temperature, 2 h; details: both partners purified
T1 construct: also called TERF2; source: E. coli, purified (Ni-NTA, SEC); not shown: His6-SUMO, N-terminal, cleaved
T1 sequence (looked up): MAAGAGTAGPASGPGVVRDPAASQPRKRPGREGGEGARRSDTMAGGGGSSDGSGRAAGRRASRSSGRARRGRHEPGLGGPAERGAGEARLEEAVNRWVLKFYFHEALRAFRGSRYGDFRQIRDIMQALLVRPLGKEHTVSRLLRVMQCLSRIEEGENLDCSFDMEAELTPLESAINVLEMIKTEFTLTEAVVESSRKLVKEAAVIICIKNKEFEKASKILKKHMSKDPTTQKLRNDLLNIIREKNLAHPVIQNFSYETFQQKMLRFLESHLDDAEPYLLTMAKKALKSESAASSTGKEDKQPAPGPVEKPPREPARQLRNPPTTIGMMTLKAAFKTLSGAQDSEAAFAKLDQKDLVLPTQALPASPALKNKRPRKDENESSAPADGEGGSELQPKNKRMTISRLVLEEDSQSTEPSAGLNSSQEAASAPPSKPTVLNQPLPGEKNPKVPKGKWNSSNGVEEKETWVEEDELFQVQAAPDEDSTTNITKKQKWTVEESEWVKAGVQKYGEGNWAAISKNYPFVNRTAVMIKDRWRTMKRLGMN

full-length Rap1 = target: T2, full-length Rap1 (human, UniProt Q9NYB0 1-399); test: as above; details: both partners purified
T2 construct: also called TERF2IP; source: E. coli, purified (Ni-NTA, SEC); not shown: His6-SUMO, N-terminal, cleaved
T2 sequence (looked up): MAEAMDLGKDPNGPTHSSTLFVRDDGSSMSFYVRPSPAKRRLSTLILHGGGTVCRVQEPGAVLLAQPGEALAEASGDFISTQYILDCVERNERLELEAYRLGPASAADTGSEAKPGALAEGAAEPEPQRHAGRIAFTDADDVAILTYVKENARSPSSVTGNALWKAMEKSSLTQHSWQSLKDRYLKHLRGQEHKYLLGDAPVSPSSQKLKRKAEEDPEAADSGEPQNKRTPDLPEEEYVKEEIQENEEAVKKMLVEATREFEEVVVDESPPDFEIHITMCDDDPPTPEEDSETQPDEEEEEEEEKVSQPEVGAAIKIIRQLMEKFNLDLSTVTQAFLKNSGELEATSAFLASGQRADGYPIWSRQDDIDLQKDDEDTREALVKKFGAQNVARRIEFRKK

[5] = target: T3, EBNA1 Δ90–325 3x (E495A D499A E500A) (Epstein-Barr virus, UniProt P03211 1-641, Δ90–325 | E495A | D499A | E500A); test: native gel or EMSA; pre-assembled TRF2-Rap1 complex (glycerol-gradient purified) serially diluted and added to pre-assembled ½ DS-EBNA1 complex (20 nM EBNA1 Δ90–325 WT, 3x or 8x, 5 nM ½ DS DNA); binding buffer with 300 mM KCl, pH 7.5; details: both partners purified
T3 construct: also called 3x mutant EBNA1; source: E. coli, purified (Ni-NTA, SEC); not shown: His6-SUMO, N-terminal, cleaved
T3 sequence: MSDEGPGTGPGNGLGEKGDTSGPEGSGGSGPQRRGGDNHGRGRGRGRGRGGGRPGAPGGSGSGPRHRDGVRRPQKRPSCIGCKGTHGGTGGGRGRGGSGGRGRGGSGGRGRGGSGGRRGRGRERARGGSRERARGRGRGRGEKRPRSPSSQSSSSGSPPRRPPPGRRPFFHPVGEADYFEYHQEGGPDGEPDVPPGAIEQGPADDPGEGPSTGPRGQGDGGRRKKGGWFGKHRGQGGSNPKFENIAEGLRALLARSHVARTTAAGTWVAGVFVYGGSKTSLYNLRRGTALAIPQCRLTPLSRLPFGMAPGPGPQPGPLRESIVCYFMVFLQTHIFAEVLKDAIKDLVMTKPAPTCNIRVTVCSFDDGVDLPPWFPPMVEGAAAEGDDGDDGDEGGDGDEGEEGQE

B1: binds [1].

B2: EBNA1 459–607 (domain or fragment)
chain: RKKGGWFGKHRGQGGSNPKFENIAEGLRALLARSHVERTTDEGTWVAGVFVYGGSKTSLYNLRRGTALAIPQCRLTPLSRLPFGMAPGPGPQPGPLRESIVCYFMVFLQTHIFAEVLKDAIKDLVMTKPAPTCNIRVTVCSFDDGVDLP
notes: also called shorter EBNA1 459–607; core structured DBD; source: E. coli
B2: binds [2].

B3: binds [3]; binds [4]; binds (full-length TRF2). B3: binds (full-length Rap1).

With B4 the “fold weaker binding than with WT EBNA1” value [5] was roughly 2 fold.
